Fewer inactive variants are shown than the library holds.
B1: TPR 5TU (parent)
chain: GGAUCUUCUCGAUCUAACAAAAAAGACAAAUCUGCCACAAAGCUUGAGAGCAUCUUCGGAUGCAGAGGCGGCAGCCUUCGGUGGCGCGAUAGCGCCAACGUUCUCAACUAUGACACGCAAAACGCGUGCUCCGUUGAAUGGAGUUUAUCAUG

Variants of: B1
Test: polymerase ribozyme fitness, log enrichment relative to wild type (log ratio); higher = more active; in vitro selection for triplet polymerase activity
In short: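 Genotype fitness is the logarithm of its enrichment divided by wild-type enrichment, using inverse-variance-weighted averages of replicates. That logarithm is base 2. Enrichment was measured by Illumina sequencing of input and output libraries from one triplicate in vitro selection round, with frozen incubation at −7 °C, on PCR-built, transcribed mutant libraries of each subunit of a heterodimeric triplet polymerase ribozyme, retaining genotypes with ≥10 input reads and ≥1 read per output.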

Variant | polymerase ribozyme fitness (log ratio)
GGAUCUUCUAGAUUUAACAAAAAAGACAAAUCUGCCACAAAGCUUGAGAGCAUCUUCGGAUGCAGAGGCGGCAGCCUUCGGUGGCGCGAUAGGGCCAACGUUCUCAACUAUGACACGCAAAACGCGUGCUCCGUUGAAUGGAGUUUAUUAUG [C10A C14U C93G C149U] | ≤ -4.2
GGAUCUUCUCGAUCCAAUAAAAAAGACAAAUCUGCCACAAAGCUUGAGAGCAUCUUCGGAUGCAGAGGCGGCAGCCUUCGGUGGGGCGAUAGCGCCAACGUUCUCAACUAUGACACGUAAAACGCGUGCUCCGUUUAAUGGAGUUUAUCAUG [U15C C18U C85G C118U G136U] | -3.19
GGAUCUUCUCGAUCUAUCAAAAAAGACAAAUCUGCCACAAAGCUUGAGAGCAUCUUCGGAUGCAGAGGCGGCAGCCUUCGGUGGCGCGAUAGCGCCAGCGUUCUCAACUAUGACACGCAAAACGCGUGCUCCGUUGAAUGGAGUUUAUCAUG [A17U A98G] | -0.0344
GGAUCUUAUCGAUCUAACAAAAAAGACAAAUCUGCCACAAAGCUUGAGAGCAACUUCGGAUGCAGAGGCGGCAGCCUUCGCUGGGGCGAUAGCGCCAACGUUCUCAAUUAUGACACGCAAAACGCGUGCUCCGUUGAGUGGAGUUUGUCUUU [C8A U53A G81C C85G C108U A138G A147G A150U G152U] | -3.5
GGAUCUUCUCGAUAUAACAAAAAAGACAAAUCUGCCACUAAGCUUGAGAGCAUCUUCGGAUGCAGAGGCGGCGGCCUUCGGUGGCGCGAUAGCGGCAACGUUCUCAACUAUGACACGCAAAACGCGUGCUCCGUUGAAUGGAGUUUAUCAUG [C14A A39U A73G C95G] | ≤ -4.2
GGAUCUUCUCGAUCUAACAAAAAAGACAAAUCAGCCACAAAGCUUGAGAGCAUCUACGGAUGCAGAGGCGGCAGCCUUCGGUGGCGCGAAAGCGCCAACGUUCUCAACUAUGACACGCAAACCGCGUGCUCCGUUGAAUGGAGUUUAUCAGG [U33A U56A U90A A122C U151G] | ≤ -4.2
GGAUCUUCUCGAUCUAACAAAAAAGACAAAUCUGCCACAAAGCUUGAGAGCAUCCUCGGAUGCAGAGGCGGCAGCCUUCGGUGGGGCGAUAGCGCCAACGUUCUCAACUAUGACACGCAAAACGCGUGCUCCGUUGAAUGGAGUUUAUCAUG [U55C C85G] | -1.66
GGAUCUUCUCGAUCUAACAAAAUAGACAAAUCUGCCACAAAGCUUGAGAGCAUCUUCGUAUGCAGAGGCGGCAGCCUUCGGUGGCGCGAUAGUGCCAACGUUCUCAACUAUGACACGCAAAACGCGUGCUCCGUUGAAUGGAGUUUAUCAUG [A23U G59U C93U] | ≤ -4.2
GGAUCUUCUCGAUCUAACAAAAAAGACAAAUCUGCCACAAAGCUUGACAGCAUCUUCGGAUGCAGAGGCGGCAGCCUUCGGUGGCGCGAUGGCGCCAACGUUCUUAACUAUGACACGCAAAACGCGUGCUCCGUUGAAUGGAGUUUGUCAUG [G48C A91G C105U A147G] | ≤ -4.2
GGAUCUUCUCGAUCUAACAAAAAAGACAAAUCUGCCACAAAGCUUGAGAACAUCUUCGGAUGCAGAGGCGGCAGCCUUCGGUGGCACGAUAGCGCCAACGUUCUCAACUAUGACACGCAAAACGCGUGCUUCGUUGAAUGGAGUUUAUCAUG [G50A G86A C131U] | -1.93
GGAUCUUCUCGAUCUAACAAAAAAGACAAGUCUGCCACAAAGCUUGAGAGCAUCUUCGGAUGCAGAGGCGGCAGCCUUCAGUGGCGCGAUAGCGCCAACGUUCUCAACUAUGACACGCAAAACGCGUGCUCCGUUGAAUGGAGUUUAUCAUG [A30G G80A] | -3.66
GGAUCUUCUCGAUCUAACAAAAAAGACAAAUCUGCCACAAGGCUUGAGAGCAUCUUCGGAUGCAGAGGCGGCAGCCUUCGGUGGCGCGAUAGCUCCAACGUUCUCAACUAUGAUACGCAAAACGCGUGCUCCGUUGAAUGGAGUUUAUCGUG [A41G G94U C114U A150G] | -3.98
GGAUCUUCUCGAUCUAACAAAAAAGACAAAUCUGCCACAAAGCUUGAGAGCAUCUUCGGAUGCAGAGGCGGCAGCGUUCGGUGGCGCGAUCGCGCCAACGUUCUCAACUAUGACACGCAAAACGCGUGCUCCGUUGAAUGGAGUUUAUCAUG [C76G A91C] | ≤ -4.2
GGAUCUUCUCGAUCUAACAAAAAAGACAAAUCUGCCCCAAAGCUUGAGAGCAUCUUCGGAUGCAGAGGCGGCAGCCUUCGGUGGCGCGAUAGCGCCAACGUUCUCAACUAUGACAGGCAAAACGCGUGCUCCGUUGAAUGGAGUUUAUCAUG [A37C C116G] | -0.143
GGAUCUUCUCGAUCUAACAAAAAAGACAAAUCUGCCACAAAGCUUGAGAGCAUCUUCGGAUGCAGAGGCGGCAGCCUUCGGUGGAGCGAUAGCACCAACGUUCUCAACUAUGACACGCAAAACGCGUGCUCCGUUGAAUGGAGUUUAUCAUG [C85A G94A] | -1.74
GGAUCUUCUCGAUCUAACAAAAAAGACAAAUCUGCCACAAAGCUUGAGAGCAUCUUCGGAUGCAGAGGCGGGAGCCUUCGGUGGCGCGAUAGCGCCAACGUUCUCAAUUAUGACACGCAAAACGCGUGCUCCGUUGCAUGGAGUUUAUCAUG [C72G C108U A137C] | ≤ -4.2
GGAGCUUCUCGAUCUAACAAAAAGGACAAAUCUGCCACAAAGCUUGCGAGAAUAUUCGGAUGCAGAGGCGGCAGCGUUCGGGGGCUCGAUAGCGCCAACGUUCUCAACUAUGACGCGCAAAACGCGUGCUCCGUUGAAUGGAGUUUAUCAUG [U4G A24G A47C C51A C54A C76G U82G G86U A115G] | ≤ -4.2
GGAUCUUCUCGAUCUAACAAAAAAGACAAUUCUGCCACAAAGCUUGAGAGCAUCUUCGGAUGCAGAGGCGGCAGCCUUCGGUGGCGCGAUAGCACCAACGUUCUCAACUAUGACACGCAAAACGCGUGCUCCGUUGAAUGGAGUUUAUCAUG [A30U G94A] | -3.7
GGAUCUUCUCGAUCUAACAAAAAAGACAAAUCUGCCACAAAGCUUGAGAGCAUCUUCGGAUGCAGAGGCGGCAGCCUUCGGUUGCGCGAUAGCGCCAACGUUCUCAACUAUGACACGCAAAACGCGUGCUCCGUUGAAUGGCGUCUAUCAUG [G83U A142C U145C] | -3.76

Variant | polymerase ribozyme fitness (log ratio)
GGAUCUUCUCGAUCUAACAAAAAAGACAAAUCUGCCAUAAAGCUUGAGAGCAUCUUCCGAUGCAGAGGCGGCAGCCUUCGGUGGCGCGAUAGCGCUAGCGUUCUCAACUAUGACACGCAAAACGCGUGCUCCGUUGAAUGGAGUUUAUCAUG [C38U G58C C96U A98G] | 0.385
GGAUCUUCUCGAUCUAACAAAAAAGACAAAUCUGCCACAAAGCUUGAGAGCAUCUUCGGAUGCAGAGGCGGCAGCCUUCGGUGGCGCGAUAACGCCAAUGUUCUCAACUAUGACACUCAAAACGCGUGCUCCGUUGAAUGGAGUUUAUCAGG [G92A C99U G117U U151G] | ≤ -4.2
GGAUCUUCUCGAUCUAACAAAAAAGACAAAUCUGCCACAAAGCUUGAGAGCUUAUUCGGAUGCAGAGGCAGCAGCCUUCGGUGGCGCGGUACCGCCAACGUUCUCAACUAUGACACGCCAAACGCAUGCUCCGUUGAAUGAAGUUUAUCAUG [A52U C54A G70A A89G G92C A119C G126A G141A] | ≤ -4.2
GGAUCUUCUCGAUCUAACAAAAAAGACAAAUCUGCCACAAAGCUUGAGAGCAUCUUCGGAUGCAGAGGCGGCAGCCUUCUGUGGCGCGAUAGCGCCAACGUUCUCAACCAUGACACGCAAAACGCGUGCUCCGUUGAAUGGACUUUAUCAUG [G80U U109C G143C] | -4.04
GGAUCUUCUCGAUCUAACAAAAAAGACAAAUCUGCCACAAAGCUUGAGAGCAUCGUCGGAUGCAGAGGCGGCAGCCUUCGGUGGCGCGAUAGCGCCAACGUUCUCAACUAUGACACGCAAAACGCGUGCUCCGUUGAAUGGAAUUUAUCAUG [U55G G143A] | -0.655
GGCUCUUCUGGAUCUAACAAAAAAGACAAAUCUGCCACAAAGCUUGAGCGCAUUUUCGGUUGCAGAGGCGGCAGCCUUCGGUGGCGCGAUCGCGCCAACAUUCUCAACUAUGACACGCAAAACGCGUGCUCCGUUUAACGGAGUUUAUCAUG [A3C C10G A49C C54U A60U A91C G100A G136U U139C] | ≤ -4.2
GGAUCUUCUCGAUCUAACAAAAAAGACAAAUCUGCCACAAAGCUUGAGAGCAUCGUCGGAUGCAGAGGCGGCAGCCUUCGGUGACGCGAUAGCGCCAAAGUUCUCAACUAUGACACGCAGAACGCGUGCUUCGUUGAAUGGAGUUUAUCAUG [U55G G84A C99A A120G C131U] | -2.08
GGAUCUUCUCGAUCUAACAAAAAAGACAAAUCUGCCACAAAGCUUGAGAGCAUCUACGGGUGCAGAGGCGGCAGCCUUCGGUGGCGCGAUAGCGCCAACGUUCUCAACUAUGACACGCAAAACGGGUGCUCCGUUGAAUGGAGUUUAUCAUG [U56A A60G C125G] | -0.563
GGAUCUUCUCGAUUUAAAAAAAAAGACUAAUCUGCCACAAAGCUUGAGAGCAUAUUCGGAUGCAGAGGCGGCAGCCUUCGGUGGCGCGAUGGCGCCAACGUUCUCAACUAUGACACGCAAAACGCGUGCUCCGUUGAAUGGAGUUUAGCAUG [C14U C18A A28U C54A A91G U148G] | ≤ -4.2
GGAUCUUCUAGAUCUAACAAAAAAGACAAAUCUUCCACAAAGCUUGAGAGCAUCUUUGGAUGCAGAGGCGGCAGCUUUCGGUGGCGCGAUAGCGGCAACGUUCUCAACUAUGACAGGCAAAACGCGUGCUCCGUUGAAUGGAGUUUAUCAUG [C10A G34U C57U C76U C95G C116G] | ≤ -4.2
GGAUCUUCUCGAUCUAACAAAAAAGACAAAUCUGCCACAAAGCUUGAGAGCAUCUUCGGAUGCAGAGGCGGCAGCCUUCGGUGGUCCAAGAGCGCCAACGUUCUCAACUAUGACACGCAAUACGCGUACUCCGUUGAAUGGAGUUUAUCAUG [C85U G86C G88A U90G A121U G128A] | ≤ -4.2
GGAUCUUCUCGAUCUAACAAAAAAGACAAAUCUGCCACAAAGCUUGAGAGCAUCUUCGGAUGCAGAGGCGGCAGCCUUCGUUGGCGCGAUAGCGCUAACGUUCUCAACUAUGACACGCAAAACGCGUGCUCCGUUGAAUGGAGUUUAUCCUG [G81U C96U A150C] | -3.33
GGAUCUUCUCGAUCUAACCAAAAAGACAAAUCUGCCACAAAGCUUGAGAGCAUCUUCGGAUGCAGAGGCGGCAGCCUUCGGUGGCGCGAUAGCGCCAACGUUCUCAACGAUGACACGCAAAACGCGUGCUCCGUUGAAUGGAGUUUAUCAUG [A19C U109G] | -0.641
GGAUCUUCUCGAUCUAACAAAAAAGACAAAUCUGCCACAAAGCUUGAGAGAAUCUUUGGAUGCAGAGGCGGCAGCCUUCGGUGGCGCGAUAGCGCCAACGUUCUCAACUAUGACACGCAAAACGCGUGCUCCGUUGAAUGGAGUUGAUCAUG [C51A C57U U146G] | -1.67
GGAUCUUCUCGAUCUAACAAAAAAGACAAAACUGCCACAAAGCUUGAGAGCAUCUUCCGAUGCAGAGGCGGCAGACUUCGGUGGCGCGAUAGCGCCAACGUUUUCAACAGUGACACGCAAAACGCGUGCUCCGUUGAAUGGAGUUUAUCAUG [U31A G58C C75A C103U U109A A110G] | ≤ -4.2
GGAUCUUCUCGAUCUAACAAAAAAUACAAAUCUGCCACAAAGCUUGAGAGCAUCUUCGGAUGCAGAGGCGGCAGCCUUCGGUGGUGCGAUAGCGCCAACGCUCUCAACUAUGACACGCAAAACGCGUGCUCCGUUGAAUGGAGUUUAUCAUG [G25U C85U U101C] | -2.41
GGGGCUUCUCGAUCAAACAAAAAAGAUAAAUCUGCCAAAAAGCUUGAGAGCAUCUUGGGAUGCAGAGGCGGCAGCCUUCGGUGGCGCGAUAACGCCAACGUUCUCAACUAUGACACGCUAAACGCGUGCUCCGUUGAAUGGAGUUUAUCAUG [A3G U4G U15A C27U C38A C57G G92A A119U] | ≤ -4.2
GGAUCUUCUCGAUCUAACAAAAAAGACAAAUCUGCCACAAAGCUUGAGAGCAUCUUCGGAUGCAGAGGCGGCAGCCUUCGGUGGCGCGAUAGCGCCAACGUGCUCAACUAUGACAAGCAAAACGCGUGCUCCGUUGAAUGGAGUUUAUCAUG [U102G C116A] | -2.07
GGAUCUUCUCGAUCUAACAAAAAAGACAAAUCUGCCACACAGCUUGAGAGCAUCUUCGGAUGCAGAGGCGGCAGCGUUCGGUGGCGCGAUAGCGCCAACGUUCUCAACUAUGACACGCAAAACGCGUGCUCCGUUGAAUGGAGUUUAUCAAG [A40C C76G U151A] | ≤ -4.2

— the RNAGym collection of RNA variant scans (doi:10.1073/pnas.2313332121)
